{"source": "paper PMC7524362", "about": "“Functional analysis and cryo-electron microscopy of Campylobacter jejuni serine protease HtrA” (Gut Microbes, 2020)", "key": {"[1]": {"target": "HtrACj S197A, expressed without the predicted signal peptide (residues 17-472), protease-inactive mu (Campylobacter jejuni (strain 81-176))", "assay": "cryo-EM structure"}, "[2]": {"target": "HtrAHp S221A, proteolytically inactive variant of HtrA from H. pylori 26695 (plasmid pUZ3) (Helicobacter pylori (strain 26695))", "assay": "SEC; Superose 12HR10/30, 50 mM Na2HPO4/NaH2PO4 pH 7.4, 300 mM NaCl, room temperature, 41 µM HtrA, no substrate; S/A mutants purified in presence of urea and refolded"}, "[3]": {"target": "HtrACj wild type, proteolytically active (plasmid pUZCj4) (Campylobacter jejuni (strain NCTC11168)) (UniProt Q0P928)", "assay": "SEC; Superose 12HR10/30, 50 mM Na2HPO4/NaH2PO4 pH 7.4, 300 mM NaCl, room temperature; 41 µM HtrA pre-incubated with 41 µM β-casein (molar ratio 1:1) for 10 min at 37°C"}, "[4]": {"target": "HtrACj wild type, proteolytically active (plasmid pUZCj4) (Campylobacter jejuni (strain NCTC11168)) (UniProt Q0P928)", "assay": "SEC; Superose 12HR10/30, 50 mM Na2HPO4/NaH2PO4 pH 7.4, 300 mM NaCl, room temperature, 41 µM HtrA, no substrate; proteins purified under native conditions without refolding step"}, "[5]": {"target": "HtrACj wild type, proteolytically active (plasmid pUZCj4) (Campylobacter jejuni (strain NCTC11168)) (UniProt Q0P928)", "assay": "casein zymography (non-reducing SDS-PAGE); 50 ng purified HtrA in Laemmli buffer on 10% SDS-PAGE gels with 0.1% casein, non-reducing, renatured in 2.5% Triton X-100, developed overnight at 37°C"}, "[6]": {"target": "HtrACj S197A, proteolytically inactive variant (plasmid pUZCj5) (Campylobacter jejuni (strain NCTC11168)) (UniProt Q0P928)", "assay": "SEC; Superose 12HR10/30, 50 mM Na2HPO4/NaH2PO4 pH 7.4, 300 mM NaCl, room temperature, 41 µM HtrA, no substrate; proteins purified under native conditions without refolding step"}, "[7]": {"target": "HtrACj S197A, proteolytically inactive variant (plasmid pUZCj5) (Campylobacter jejuni (strain NCTC11168)) (UniProt Q0P928)", "assay": "SEC; Superose 12HR10/30, 50 mM Na2HPO4/NaH2PO4 pH 7.4, 300 mM NaCl, room temperature, 41 µM HtrA, no substrate; S/A mutants purified in presence of urea and refolded"}, "[8]": {"target": "HtrACj S197A, proteolytically inactive variant (plasmid pUZCj5) (Campylobacter jejuni (strain NCTC11168)) (UniProt Q0P928)", "assay": "SEC; Superose 12HR10/30, 50 mM Na2HPO4/NaH2PO4 pH 7.4, 300 mM NaCl, room temperature, 41 µM HtrA, no substrate; S/A mutants purified in presence of urea and refolded", "remark": "listed apart in the source"}, "[9]": {"target": "the molecule itself", "assay": "SEC; Superose 12HR10/30, 50 mM Na2HPO4/NaH2PO4 pH 7.4, 300 mM NaCl, room temperature, 41 µM HtrA, no substrate; S/A mutants purified in presence of urea and refolded"}}, "note": "Where “and” joins values, the source holds several entries; their conditions need not be identical. Equal values may be shown once."}
{"molecule": "HtrACj S197A, expressed without the predicted signal peptide (residues 17-472), protease-inactive mu (enzyme)", "values": [{"measurement": "stoichiometry N", "setting": "[1]", "result": 12}]}
{"molecule": "HtrAHp S221A, proteolytically inactive variant of HtrA from H. pylori 26695 (plasmid pUZ3) (enzyme)", "values": [{"measurement": "stoichiometry N", "setting": "[2]", "result": "3 and 6"}]}
{"molecule": "HtrACj wild type, proteolytically active (plasmid pUZCj4) (from UniProt Q0P928 1-472) (enzyme)", "values": [{"measurement": "stoichiometry N", "setting": "[3]", "result": 6}, {"measurement": "stoichiometry N", "setting": "[4]", "result": 6}, {"measurement": "stoichiometry N", "setting": "[5]", "result": 3}]}
{"molecule": "HtrACj S197A, proteolytically inactive variant (plasmid pUZCj5) (from UniProt Q0P928 1-472) (enzyme)", "values": [{"measurement": "stoichiometry N", "setting": "[6]", "result": 12}, {"measurement": "stoichiometry N", "setting": "[7]", "result": 12}, {"measurement": "stoichiometry N", "setting": "[8]", "result": "> 12"}]}
{"molecule": "HtrAEc S210A, proteolytically inactive variant of HtrA/DegP from E. coli (plasmid pJS17) (enzyme, UniProt P0C0V0 27-474, looked up, also called S/A mutant of HtrAEc) AETSSATTAQQMPSLAPMLEKVMPSVVSINVEGSTTVNTPRMPRNFQQFFGDDSPFCQEGSPFQSSPFCQGGQGGNGGGQQQKFMALGSGVIIDADKGYVVTNNHVVDNATVIKVQLSDGRKFDAKMVGKDPRSDIALIQIQNPKNLTAIKMADSDALRVGDYTVAIGNPFGLGETVTSGIVSALGRSGLNAENYENFIQTDAAINRGNAGGALVNLNGELIGINTAILAPDGGNIGIGFAIPSNMVKNLTSQMVEYGQVKRGELGIMGTELNSELAKAMKVDAQRGAFVSQVLPNSSAAKAGIKAGDVITSLNGKPISSFAALRAQVGTMPVGSKLTLGLLRDGKQVNVNLELQQSSQNQVDSSSIFNGIEGAEMSNKGKDQGVVVNNVKTGTPAAQIGLKKGDVIIGANQQAVKNIAELRKVLDSKPSVLALNIQRGDSTIYLLMQ", "values": [{"measurement": "stoichiometry N", "setting": "[9]", "result": 6}]}
